T1: Activin A (UniProt P08476 311-426)
T1 sequence (looked up): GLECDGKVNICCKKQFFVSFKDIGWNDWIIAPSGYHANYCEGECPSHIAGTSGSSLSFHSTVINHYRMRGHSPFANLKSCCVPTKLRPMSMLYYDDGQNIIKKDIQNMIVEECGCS

T2: Activin B (UniProt P09529 293-407)
T2 sequence (looked up): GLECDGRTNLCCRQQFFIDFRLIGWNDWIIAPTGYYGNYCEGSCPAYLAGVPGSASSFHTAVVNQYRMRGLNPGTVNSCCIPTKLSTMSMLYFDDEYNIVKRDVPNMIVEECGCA

B1: ActRIIb (SEQ ID NO: 74) (receptor)
chain: GRGEAETRECIYYNANWELERTNQSGLERCEGEQDKRLHCYASWRNSSGTIELVKKGCWLDDFNCYDRQECVATEENPQVYFCCCEGNFCNERFTHLPEAGGPEVTYEPPPTAPT
notes: also called Human ActRIIb, extracellular portion; not shown: Carrier and linker
B2: BMP-9 (ligand, UniProt Q9UK05 320-429, looked up)
chain: SAGAGSHCQKTSLRVNFEDIGWDSWIIAPKEYEAYECKGGCFFPLADDVTPTKHAIVQTLVHLKFPTKVGKACCVPTKLSPISVLYKDDMGVPTLKYHYEGMSVAECGCR
notes: also called bone morphogenetic protein 9
B3: growth differentiation factor 11 (GDF11) (ligand, UniProt O95390 299-407, looked up)
chain: NLGLDCDEHSSESRCCRYPLTVDFEAFGWDWIIAPKRYKANYCSGQCEYMFMQKYPHTHLVQQANPRGSAGPCCTPTKMSPINMLYFNDKQQIIYGKIPGMVVDRCGCS

Tests used:
[1] = biological target: B2; test: SPR (Biacore 3000), receptor captured on chip, ligand in solution
[2] = biological target: T1, Activin A; test: as above
[3] = biological target: B3; test: as above
[4] = biological target: T2, Activin B; test: as above
[5] = biological target: T1, Activin A; test: SPR (Biacore 3000), receptor captured on chip by anti-mouse antibody, ligand in solution
[6] = biological target: B3; test: as above
[7] = biological target: T2, Activin B; test: as above
[8] = biological target: B1; test: SPR (Biacore 3000), receptor captured on chip, ligand in solution

Binder	Kd [1] [nM]	Kd [2] [nM]	Kd [3] [nM]	Kd [4] [nM]	binding result [5]	binding result [6]	binding result [7]	Kd [8] [nM]
ActRIIa/bmax3 variant (SEQ ID NO: 72) (receptor, not shown: Carrier and linker) GAILGRSETQECLFYNANWELERTNQTGVERCEGEKDKRLHCYATWRNISGSIEIVKKGCWLDDFNCYDRTDCVETEENPQVYFCCCEGNMCNEKFSYFPEMEVTQPTSNPVTPK	3.3	0.089	0.214	0.043				
ActRIIb/a variant (SEQ ID NO: 149) (receptor, Engineered extracellular ActRIIb variant; also called extracellular ActRIIb variant; not shown: Carrier and linker) GRGEAETRECIFYNANWEKDRTNQSGLEPCYGDQDKRRHCFASWKNSSGTIELVKQGCWLDDINCYDRQECVAKKDSPEVYFCCCEGNFCNERFTHLPEAGGPEVTYEPPPTAPT					no binding	no binding	no binding	
B1		0.063		0.023				
B2								0.278
ActRIIa/bmax2 variant (SEQ ID NO: 71) (receptor, not shown: Carrier and linker) GAILGRSETQECLFYNANWELERTNQTGVERCEGEKDKRLHCYATWRNISGSIEIVKKGCWLDDFNCYDRTDCVETEENPQVYFCCCEGNMCNEKFSYFPEMEVTQPTSNP	5	0.135	0.113	0.039				
ActRIIa/bΔ9 variant (SEQ ID NO: 58) (receptor, Engineered extracellular ActRIIa variant; not shown: Fusion partner and its linker) GAILGRSETQECLFYNANWELDRTNQTGVERCEGEKDKRLHCYATWRNISGSIEIVKKGCWLDDFNCYDRTDCVETKENPQVYFCCCEGNMCNEKFSYFPEMEVTQPTS	10	0.213	0.115	0.0123				
ActRIIa/b variant (SEQ ID NO: 69) (receptor, Engineered extracellular ActRIIa variant; not shown: Carrier and linker) GAILGRSETQECLFYNANWELERTNQTGVERCEGEKDKRLHCYATWRNISGSIEIVKKGCWLDDFNCYDRTDCVETEENPQVYFCCCEGNMCNEKFSYFPEMEVTQPTS	4	0.542	0.186	0.103				
ActRIIa/bmax1 variant (SEQ ID NO: 70) (receptor, Engineered extracellular ActRIIa variant; not shown: Carrier and linker) GAILGRSETQECLYYNANWELERTNQTGVERCEGEQDKRLHCYATWRNISGSIEIVKKGCWLDDFNCYDRTDCVETEENPQVYFCCCEGNMCNEKFSYFPEMEVTQPTS	5.6	0.232	0.236	0.097				
ActRIIa/bΔ9 min variant (SEQ ID NO: 6) (receptor, Engineered extracellular ActRIIa variant; not shown: Fusion partner and its linker) GAILGRSETQECLFYNANWELDRTNQTGVEPCEGEKDKRLHCFATWKNISGSIEIVKKGCWLDDINCYDRTDCVETKENPQVYFCCCEGNMCNEKFSYFPEMEVTQPTS	17	0.31	0.114	0.088				
ActRIIa/bΔ9m4 variant (SEQ ID NO: 44) (receptor, Engineered extracellular ActRIIa variant; not shown: Carrier and linker) GAILGRSETQECLFYNANWELDRTNQTGVEPCEGEKDKRLHCYATWRNISGSIEIVKKGCWLDDFNCYDRTDCVETKENPQVYFCCCEGNMCNEKFSYFPEMEVTQPTS	14 to 20	0.375	0.394	0.254				
ActRIIa/bΔ9m3 variant (SEQ ID NO: 41) (receptor, Engineered extracellular ActRIIa variant; not shown: Fusion partner and its linker) GAILGRSETQECLFYNANWELDRTNQTGVERCEGEKDKRLHCFATWRNISGSIEIVKKGCWLDDFNCYDRTDCVETKENPQVYFCCCEGNMCNEKFSYFPEMEVTQPTS	1.2	0.071	0.117	0.0725				
ActRIIa/b+ variant (SEQ ID NO: 150) (receptor, not shown: Fusion partner and its linker) GAILGRSETQECLFYNANWELERTNQTGVERCEGEKDKRLHCYATWRNISGSIEIVAKGCWLDDFNCYDRTDCVETEENPQVYFCCCEGNMCNEKFSYFPEMEVTQPTS	26	0.242		0.282				
ActRIIa/bΔ9m2 variant (SEQ ID NO: 38) (receptor, Engineered extracellular ActRIIa variant; not shown: Fusion partner and its linker) GAILGRSETQECLFYNANWELDRTNQTGVERCEGEKDKRLHCYATWRNISGSIEIVKKGCWLDDINCYDRTDCVETKENPQVYFCCCEGNMCNEKFSYFPEMEVTQPTS	13 to 18	0.17	0.222	0.104				
B3								0.115

Reference: patent US20190282663A1 (KEROS THERAPEUTICS, published 2019)
